In general, Kd refers to the concentration at which binding is half-saturated. A lower Kd goes with higher affinity.

No end group written: not given here.

In patent US20150044701A1, “IgA-BINDING PEPTIDE AND IgA PURIFICATION USING THE SAME” (KAGOSHIMA UNIVERSITY, priority 2011, published 2015) one finds Kd data, which are given here for 20 molecules.

One assay concerns the target human IgA (human). Put plainly: SPR (Biacore T100).
Settings: not given
In general terms: Surface plasmon resonance follows binding to a sensor surface in real time, without labels.
Consider HQVCLSYRGRPVCFST (not fully specified (bridges); cysteine pairing not given here) [Opt2 M2Q L16T], for which the Kd is 72 nM.

HQVCLSYRGQPTCFST (not fully specified (bridges); cysteine pairing not given here) [Opt2 M2Q L16T R10 Q V12T] gave a dissociation constant (Kd) of 2820 nM.

On to HQVCLSYRGRPTCFST (not fully specified (bridges); cysteine pairing not given here) [Opt2 M2Q L16T V12T], for which the dissociation constant (Kd) stood at 952 nM.

The molecule HQVCLSYRGQPVCFST (not fully specified (bridges); cysteine pairing not given here) [Opt2 M2Q L16T R10Q] registered a Kd of 699 nM.

With HMVCLSYRGRPVCFS (not fully specified (bridges); cysteine pairing not given here) [Opt2 15AA], the Kd stood at 491 nM.

HQVCLSYRGRPVCYSL (not fully specified (bridges); cysteine pairing not given here) [Opt2 M2Q F14Y] showed a Kd of 624 nM.

Molecule HQVCLSYRGRPTCFSL (not fully specified (bridges); cysteine pairing not given here) [Opt2 M2Q V12T] displayed a Kd of 149 nM.

In turn, HMVCLSYRGRPVCF (not fully specified (bridges); cysteine pairing not given here) [Opt2 14AA] registered a Kd of 603 nM.

In turn, HQVCLSYRGQPVCFSL (not fully specified (bridges); cysteine pairing not given here) [Opt2 M2Q R10Q] came in with a Kd of 65 nM.

On to HQVCLSYRGRPVCFSL (not fully specified (bridges); cysteine pairing not given here) [Opt2 M2Q], for which the Kd is 23 nM.

In a further assay the target is human IgA. Put plainly: Surface plasmon resonance analysis (BiaCore T100) of peptide binding to human IgA. To be noted: binding affinity to human IgA. As to the method:
In order to verify binding specificity of such peptides, binding strength was evaluated via surface plasmon resonance analysis using a BiaCore T100 (GE Healthcare).
In the case of HQVCLSYRGRPTCFSL [Opt2 M2Q V12T], binding was characterised by a dissociation constant (Kd) of 149 nM.

In turn, HQVCLSYRGQPVCFSL [Opt2 M2Q R10Q] gave a Kd of 65 nM.

Regarding HQVCLSYRGRPVCFSL [Opt2 M2Q], the affinity, expressed as Kd, was 23 nM.

Regarding HQVCLSYRGRPVCYSL [Opt2 M2Q F14Y], the Kd was 624 nM.

In the case of “HQVCLSYRGQPTCFST [Opt2 M2Q L16T R10 Q V12T]”, binding was characterised by a dissociation constant (Kd) of 2820 nM.

HMVCLSYRGRPVCF [Opt2 14AA]: the affinity, expressed as Kd, was 603 nM.

On to HQVCLSYRGQPVCFST [Opt2 M2Q L16T R10Q], for which the Kd amounted to 699 nM.

Take HQVCLSYRGRPTCFST [Opt2 M2Q L16T V12T]: the Kd was 952 nM.

Molecule HMVCLSYRGRPVCFS [Opt2 15AA] yielded an equilibrium dissociation constant (Kd) of 491 nM.

Consider HQVCLSYRGRPVCFST [Opt2 M2Q L16T], for which the equilibrium dissociation constant (Kd) stood at 72 nM.
